Test results: the Human Domainome abundance scans (Beltran et al. 2025)
± gives the uncertainty stated by the source.

B1: Homeobox protein cut-like 1, residues 548 to 629; numbered along this chain, P39880 (parent)
chain: GEEMDTAEIARQVKEQLIKHNIGQRIFGHYVLGLSQGSVSEILARPKPWNKLTVRGKEPFHKMKQFLSDEQNILALRSIQGR

Variants of: B1
Experiment: abundance fitness (aPCA) (normalised: wild type 0, dead -1); higher = more abundant; growth selection in yeast, the domain comes from the species named
Details: Homo sapiens
Variant GEEMDTAEIARQVKEQLIKHNIGQRIFGHYVLGLSQGSVSEILARPKPWNKLTVRGKEPFHKMKQFLSDEPNILALRSIQGR has an abundance fitness of -0.673 ± 0.085. Work on GEEMDTAEIARQVKEQLIKHNIGQRIFGHYVLGLSQGSVSEILARPKPWNKLTVRGKEPFHKMKQFLSDENNILALRSIQGR yielded an abundance fitness of -0.099 ± 0.056. GEEMDTAEIARQVKEQLIKHNIGQRIFGHYVLGLSQGSVSEILARPKPWNKLTVRGKEPFHKMKQFLSDESNILALRSIQGR gave an abundance fitness of 0.047 ± 0.035. GEEMDTAEIARQVKEQLIKHNIGQRIFGHYVLGLSQGSVSEILARPKPWNKLTVRGKEPFHKMKQFLSDEWNILALRSIQGR showed an abundance fitness of -0.293 ± 0.035. For GEEMDTAEIARQVKEQLIKHNIGQRIFGHYVLGLSQGSVSEILARPKPWNKLTVRGKEPFHKMKQFLSDEINILALRSIQGR, the abundance fitness was -0.212 ± 0.064. In the case of GEEMDTAEIARQVKEQLIKHNIGQRIFGHYVLGLSQGSVSEILARPKPWNKLTVRGKEPFHKMKQFLSDERNILALRSIQGR, the abundance fitness is reported as -0.049 ± 0.027. GEEMDTAEIARQVKEQLIKHNIGQRIFGHYVLGLSQGSVSEILARPKPWNKLTVRGKEPFHKMKQFLSDEMNILALRSIQGR gave an abundance fitness of -0.137 ± 0.041. Variant GEEMDTAEIARQVKEQLIKHNIGQRIFGHYVLGLSQGSVSEILARPKPWNKLTVRGKEPFHKMKQFLSDEDNILALRSIQGR has an abundance fitness of -0.035 ± 0.049. GEEMDTAEIARQVKEQLIKHNIGQRIFGHYVLGLSQGSVSEILARPKPWNKLTVRGKEPFHKMKQFLSDEFNILALRSIQGR gave an abundance fitness of -0.204 ± 0.057. For GEEMDTAEIARQVKEQLIKHNIGQRIFGHYVLGLSQGSVSEILARPKPWNKLTVRGKEPFHKMKQFLSDEENILALRSIQGR, the abundance fitness was 0.06 ± 0.033. Work on GEEMDTAEIARQVKEQLIKHNIGQRIFGHYVLGLSQGSVSEILARPKPWNKLTVRGKEPFHKMKQFLSDEGNILALRSIQGR yielded an abundance fitness of -0.037 ± 0.024. For GEEMDTAEIARQVKEQLIKHNIGQRIFGHYVLGLSQGSVSEILARPKPWNKLTVRGKEPFHKMKQFLSDEVNILALRSIQGR, the abundance fitness was -0.2 ± 0.032. In the case of GEEMDTAEIARQVKEQLIKHNIGQRIFGHYVLGLSQGSVSEILARPKPWNKLTVRGKEPFHKMKQFLSDEHNILALRSIQGR, the abundance fitness is reported as -0.16 ± 0.07. With GEEMDTAEIARQVKEQLIKHNIGQRIFGHYVLGLSQGSVSEILARPKPWNKLTVRGKEPFHKMKQFLSDEYNILALRSIQGR the abundance fitness was -0.257 ± 0.064. In the case of GEEMDTAEIARQVKEQLIKHNIGQRIFGHYVLGLSQGSVSEILARPKPWNKLTVRGKEPFHKMKQFLSDECNILALRSIQGR, the abundance fitness is reported as -0.11 ± 0.044. GEEMDTAEIARQVKEQLIKHNIGQRIFGHYVLGLSQGSVSEILARPKPWNKLTVRGKEPFHKMKQFLSDETNILALRSIQGR showed an abundance fitness of -0.011 ± 0.043. In the case of GEEMDTAEIARQVKEQLIKHNIGQRIFGHYVLGLSQGSVSEILARPKPWNKLTVRGKEPFHKMKQFLSDWQNILALRSIQGR, the abundance fitness is reported as -0.217 ± 0.036. GEEMDTAEIARQVKEQLIKHNIGQRIFGHYVLGLSQGSVSEILARPKPWNKLTVRGKEPFHKMKQFLSDYQNILALRSIQGR showed an abundance fitness of -0.152 ± 0.058. Work on GEEMDTAEIARQVKEQLIKHNIGQRIFGHYVLGLSQGSVSEILARPKPWNKLTVRGKEPFHKMKQFLSDVQNILALRSIQGR yielded an abundance fitness of -0.154 ± 0.03. With GEEMDTAEIARQVKEQLIKHNIGQRIFGHYVLGLSQGSVSEILARPKPWNKLTVRGKEPFHKMKQFLSDEQQILALRSIQGR the abundance fitness was 0.03 ± 0.041. Variant GEEMDTAEIARQVKEQLIKHNIGQRIFGHYVLGLSQGSVSEILARPKPWNKLTVRGKEPFHKMKQFLSDEQVILALRSIQGR has an abundance fitness of -0.315 ± 0.033. GEEMDTAEIARQVKEQLIKHNIGQRIFGHYVLGLSQGSVSEILARPKPWNKLTVRGKEPFHKMKQFLSDEQLILALRSIQGR showed an abundance fitness of -0.251 ± 0.034. GEEMDTAEIARQVKEQLIKHNIGQRIFGHYVLGLSQGSVSEILARPKPWNKLTVRGKEPFHKMKQFLSDEQCILALRSIQGR gave an abundance fitness of -0.098 ± 0.049. In the case of GEEMDTAEIARQVKEQLIKHNIGQRIFGHYVLGLSQGSVSEILARPKPWNKLTVRGKEPFHKMKQFLSDEQIILALRSIQGR, the abundance fitness is reported as -0.289 ± 0.06. For GEEMDTAEIARQVKEQLIKHNIGQRIFGHYVLGLSQGSVSEILARPKPWNKLTVRGKEPFHKMKQFLSDEQTILALRSIQGR, the abundance fitness was -0.115 ± 0.039. With GEEMDTAEIARQVKEQLIKHNIGQRIFGHYVLGLSQGSVSEILARPKPWNKLTVRGKEPFHKMKQFLSDEQDILALRSIQGR the abundance fitness was -0.221 ± 0.044. Work on GEEMDTAEIARQVKEQLIKHNIGQRIFGHYVLGLSQGSVSEILARPKPWNKLTVRGKEPFHKMKQFLSDEQMILALRSIQGR yielded an abundance fitness of -0.132 ± 0.041. For GEEMDTAEIARQVKEQLIKHNIGQRIFGHYVLGLSQGSVSEILARPKPWNKLTVRGKEPFHKMKQFLSDEQGILALRSIQGR, the abundance fitness was -0.04 ± 0.025. GEEMDTAEIARQVKEQLIKHNIGQRIFGHYVLGLSQGSVSEILARPKPWNKLTVRGKEPFHKMKQFLSDEQKILALRSIQGR showed an abundance fitness of -0.007 ± 0.039. Variant GEEMDTAEIARQVKEQLIKHNIGQRIFGHYVLGLSQGSVSEILARPKPWNKLTVRGKEPFHKMKQFLSDEQAILALRSIQGR has an abundance fitness of 0.049 ± 0.033. For GEEMDTAEIARQVKEQLIKHNIGQRIFGHYVLGLSQGSVSEILARPKPWNKLTVRGKEPFHKMKQFLSDEQFILALRSIQGR, the abundance fitness was -0.143 ± 0.05. GEEMDTAEIARQVKEQLIKHNIGQRIFGHYVLGLSQGSVSEILARPKPWNKLTVRGKEPFHKMKQFLSDEQRILALRSIQGR showed an abundance fitness of -0.137 ± 0.027. GEEMDTAEIARQVKEQLIKHNIGQRIFGHYVLGLSQGSVSEILARPKPWNKLTVRGKEPFHKMKQFLSDEQPILALRSIQGR gave an abundance fitness of -0.432 ± 0.05. With GEEMDTAEIARQVKEQLIKHNIGQRIFGHYVLGLSQGSVSEILARPKPWNKLTVRGKEPFHKMKQFLSDEQHILALRSIQGR the abundance fitness was -0.063 ± 0.057.
